Legend:
Test in all cases: Kinase Profiling Assay
Type in all cases: biochemical
Conditions in all cases: 100 μM
CaMKIIγ (h) = target: T1, CaMKIIγ (h) (Homo sapiens, UniProt Q13555)
T1 construct: purchased Millipore
In short: (§1)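 Scintillation counting quantifies radiolabeled, positively charged substrate retained on a negatively charged filter after kinase reaction with labeled ATP; inhibitor peptide present.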

CaMKIIβ (h) = target: T2, CaMKIIβ (h) (Homo sapiens, UniProt Q13554)
T2 construct: purchased Millipore
In short: as §1

EGFR (h) = target: T3, EGFR (h) (Homo sapiens, UniProt P00533)
T3 construct: purchased Millipore
In short: as §1

CLK3 (h) = target: T4, CLK3 (h) (Homo sapiens, UniProt P49761)
T4 construct: purchased Millipore
In short: as §1

ULK3 (h) = target: T5, ULK3 (h) (Homo sapiens, UniProt Q6PHR2)
T5 sequence (Q6PHR2 1-472): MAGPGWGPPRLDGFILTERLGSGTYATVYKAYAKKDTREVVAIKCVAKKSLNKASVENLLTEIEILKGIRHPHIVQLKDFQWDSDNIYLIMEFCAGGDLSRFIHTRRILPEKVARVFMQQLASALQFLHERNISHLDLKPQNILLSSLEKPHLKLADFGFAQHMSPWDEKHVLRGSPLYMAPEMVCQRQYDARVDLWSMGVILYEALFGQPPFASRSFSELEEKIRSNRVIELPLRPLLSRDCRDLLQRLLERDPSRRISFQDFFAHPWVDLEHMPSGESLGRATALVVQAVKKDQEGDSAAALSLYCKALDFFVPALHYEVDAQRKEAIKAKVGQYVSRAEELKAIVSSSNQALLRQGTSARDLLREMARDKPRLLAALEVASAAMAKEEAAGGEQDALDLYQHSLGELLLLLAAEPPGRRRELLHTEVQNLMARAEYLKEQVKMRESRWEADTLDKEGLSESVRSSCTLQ
In short: as §1

NEK2 (h) = target: T6, NEK2 (h) (Homo sapiens, UniProt P51955)
T6 construct: purchased Millipore
T6 sequence (P51955 1-445): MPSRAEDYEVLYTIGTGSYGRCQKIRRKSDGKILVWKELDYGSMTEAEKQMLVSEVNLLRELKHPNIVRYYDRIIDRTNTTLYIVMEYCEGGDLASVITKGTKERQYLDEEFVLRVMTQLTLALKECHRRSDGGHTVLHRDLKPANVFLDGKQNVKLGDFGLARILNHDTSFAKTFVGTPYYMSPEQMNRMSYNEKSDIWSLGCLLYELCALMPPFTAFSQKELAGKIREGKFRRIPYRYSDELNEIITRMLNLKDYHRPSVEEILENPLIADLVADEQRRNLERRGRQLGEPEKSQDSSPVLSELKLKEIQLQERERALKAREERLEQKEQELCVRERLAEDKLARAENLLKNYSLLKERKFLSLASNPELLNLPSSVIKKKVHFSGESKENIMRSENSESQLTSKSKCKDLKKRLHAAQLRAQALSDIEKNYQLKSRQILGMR
In short: as §1

SAPK3 (h) = target: T7, SAPK3 (h) (Homo sapiens, UniProt P53778)
T7 sequence (P53778 1-367): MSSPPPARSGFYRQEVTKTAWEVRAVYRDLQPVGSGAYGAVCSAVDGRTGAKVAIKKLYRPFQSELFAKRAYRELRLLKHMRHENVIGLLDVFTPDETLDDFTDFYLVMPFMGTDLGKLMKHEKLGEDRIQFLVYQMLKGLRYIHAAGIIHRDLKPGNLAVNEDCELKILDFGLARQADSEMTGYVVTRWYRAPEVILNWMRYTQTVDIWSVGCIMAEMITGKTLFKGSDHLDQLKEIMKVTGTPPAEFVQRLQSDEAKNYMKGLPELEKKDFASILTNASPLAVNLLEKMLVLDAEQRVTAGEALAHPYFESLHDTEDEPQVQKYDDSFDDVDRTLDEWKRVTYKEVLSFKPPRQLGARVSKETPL
In short: as §1

Lyn (h) = Lyn (h) (Homo sapiens, UniProt P07948)
In short: as §1

TAO3 (h) = target: T8, TAO3 (h) (Homo sapiens, UniProt Q9H2K8)
T8 sequence (Q9H2K8 1-898): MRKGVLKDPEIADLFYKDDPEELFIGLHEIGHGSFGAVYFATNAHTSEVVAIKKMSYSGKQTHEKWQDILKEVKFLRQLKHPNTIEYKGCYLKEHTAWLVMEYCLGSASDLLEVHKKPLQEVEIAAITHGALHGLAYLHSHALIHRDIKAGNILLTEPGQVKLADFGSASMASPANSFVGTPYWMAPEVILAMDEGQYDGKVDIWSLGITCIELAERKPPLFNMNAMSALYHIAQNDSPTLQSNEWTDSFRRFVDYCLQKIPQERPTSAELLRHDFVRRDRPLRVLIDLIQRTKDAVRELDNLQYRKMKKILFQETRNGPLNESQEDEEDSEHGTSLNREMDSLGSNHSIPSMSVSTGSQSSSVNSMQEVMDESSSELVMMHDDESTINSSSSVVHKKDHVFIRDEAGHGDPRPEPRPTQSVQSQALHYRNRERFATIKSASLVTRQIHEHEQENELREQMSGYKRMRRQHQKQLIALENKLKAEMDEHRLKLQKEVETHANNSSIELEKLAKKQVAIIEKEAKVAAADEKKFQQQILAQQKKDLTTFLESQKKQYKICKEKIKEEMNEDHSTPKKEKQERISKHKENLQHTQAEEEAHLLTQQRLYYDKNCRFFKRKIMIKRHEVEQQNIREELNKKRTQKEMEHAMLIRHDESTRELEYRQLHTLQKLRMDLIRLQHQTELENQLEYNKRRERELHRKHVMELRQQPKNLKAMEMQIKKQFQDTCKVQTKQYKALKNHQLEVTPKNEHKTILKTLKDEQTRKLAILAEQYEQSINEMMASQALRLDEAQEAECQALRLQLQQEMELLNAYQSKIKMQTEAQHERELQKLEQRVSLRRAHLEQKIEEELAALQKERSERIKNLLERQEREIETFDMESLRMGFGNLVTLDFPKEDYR
In short: as §1

DAPK1 (h) = target: T9, DAPK1 (h) (Homo sapiens, UniProt P53355)
T9 construct: purchased Millipore
In short: as §1

MRCKβ (h) = target: T10, MRCKβ (h) (Homo sapiens, UniProt Q9Y5S2)
T10 construct: purchased Millipore
In short: as §1

T9 sequence (P53355 whole entry): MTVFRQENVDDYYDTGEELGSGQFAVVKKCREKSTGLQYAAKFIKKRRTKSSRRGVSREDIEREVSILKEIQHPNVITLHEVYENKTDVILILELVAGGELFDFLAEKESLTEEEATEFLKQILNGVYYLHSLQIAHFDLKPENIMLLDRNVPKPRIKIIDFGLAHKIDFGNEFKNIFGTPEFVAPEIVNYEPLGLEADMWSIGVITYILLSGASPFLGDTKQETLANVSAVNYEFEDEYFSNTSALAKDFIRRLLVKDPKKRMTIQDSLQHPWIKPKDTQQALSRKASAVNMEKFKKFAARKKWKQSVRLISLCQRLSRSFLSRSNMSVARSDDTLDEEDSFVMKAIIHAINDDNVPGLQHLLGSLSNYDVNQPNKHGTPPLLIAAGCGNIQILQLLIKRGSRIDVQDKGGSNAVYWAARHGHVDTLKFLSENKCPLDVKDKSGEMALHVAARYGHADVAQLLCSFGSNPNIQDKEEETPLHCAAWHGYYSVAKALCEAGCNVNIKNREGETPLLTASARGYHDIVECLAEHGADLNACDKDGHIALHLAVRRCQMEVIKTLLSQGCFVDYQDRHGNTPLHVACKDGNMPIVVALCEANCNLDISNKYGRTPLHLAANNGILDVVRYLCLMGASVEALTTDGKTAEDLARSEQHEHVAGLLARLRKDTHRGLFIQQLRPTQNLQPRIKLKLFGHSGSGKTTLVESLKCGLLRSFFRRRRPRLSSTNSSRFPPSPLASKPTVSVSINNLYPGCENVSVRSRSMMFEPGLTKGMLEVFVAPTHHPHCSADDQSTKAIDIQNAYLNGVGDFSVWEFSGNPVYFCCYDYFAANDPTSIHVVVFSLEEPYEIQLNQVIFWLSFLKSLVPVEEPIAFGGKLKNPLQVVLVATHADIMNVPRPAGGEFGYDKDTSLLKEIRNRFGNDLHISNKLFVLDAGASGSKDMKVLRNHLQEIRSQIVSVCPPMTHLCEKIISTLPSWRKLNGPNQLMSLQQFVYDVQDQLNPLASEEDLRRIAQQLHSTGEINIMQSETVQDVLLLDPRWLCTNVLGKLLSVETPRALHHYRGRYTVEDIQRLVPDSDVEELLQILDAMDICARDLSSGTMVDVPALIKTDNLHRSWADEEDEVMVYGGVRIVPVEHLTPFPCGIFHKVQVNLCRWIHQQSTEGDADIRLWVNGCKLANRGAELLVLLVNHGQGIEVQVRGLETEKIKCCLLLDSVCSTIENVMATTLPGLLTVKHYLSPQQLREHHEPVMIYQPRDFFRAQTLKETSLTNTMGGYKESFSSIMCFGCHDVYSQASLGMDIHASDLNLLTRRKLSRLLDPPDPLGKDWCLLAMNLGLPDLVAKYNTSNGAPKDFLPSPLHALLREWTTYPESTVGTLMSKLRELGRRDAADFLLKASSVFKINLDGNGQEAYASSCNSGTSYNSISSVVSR
Sequence of Lyn (h) (P07948 whole entry): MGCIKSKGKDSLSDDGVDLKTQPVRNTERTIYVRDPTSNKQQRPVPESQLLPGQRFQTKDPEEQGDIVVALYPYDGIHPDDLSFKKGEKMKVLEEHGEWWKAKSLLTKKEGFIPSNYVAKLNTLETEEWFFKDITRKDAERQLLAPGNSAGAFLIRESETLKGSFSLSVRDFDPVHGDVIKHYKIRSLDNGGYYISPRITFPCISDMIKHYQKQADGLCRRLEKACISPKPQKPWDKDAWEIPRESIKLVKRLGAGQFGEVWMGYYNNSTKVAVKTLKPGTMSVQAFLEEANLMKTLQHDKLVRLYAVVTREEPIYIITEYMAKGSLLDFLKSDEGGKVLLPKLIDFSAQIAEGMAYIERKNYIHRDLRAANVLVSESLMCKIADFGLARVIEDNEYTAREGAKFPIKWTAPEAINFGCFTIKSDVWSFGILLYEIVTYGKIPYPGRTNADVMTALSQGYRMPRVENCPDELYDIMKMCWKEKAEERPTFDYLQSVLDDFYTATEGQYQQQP
T10 sequence (Q9Y5S2 whole entry): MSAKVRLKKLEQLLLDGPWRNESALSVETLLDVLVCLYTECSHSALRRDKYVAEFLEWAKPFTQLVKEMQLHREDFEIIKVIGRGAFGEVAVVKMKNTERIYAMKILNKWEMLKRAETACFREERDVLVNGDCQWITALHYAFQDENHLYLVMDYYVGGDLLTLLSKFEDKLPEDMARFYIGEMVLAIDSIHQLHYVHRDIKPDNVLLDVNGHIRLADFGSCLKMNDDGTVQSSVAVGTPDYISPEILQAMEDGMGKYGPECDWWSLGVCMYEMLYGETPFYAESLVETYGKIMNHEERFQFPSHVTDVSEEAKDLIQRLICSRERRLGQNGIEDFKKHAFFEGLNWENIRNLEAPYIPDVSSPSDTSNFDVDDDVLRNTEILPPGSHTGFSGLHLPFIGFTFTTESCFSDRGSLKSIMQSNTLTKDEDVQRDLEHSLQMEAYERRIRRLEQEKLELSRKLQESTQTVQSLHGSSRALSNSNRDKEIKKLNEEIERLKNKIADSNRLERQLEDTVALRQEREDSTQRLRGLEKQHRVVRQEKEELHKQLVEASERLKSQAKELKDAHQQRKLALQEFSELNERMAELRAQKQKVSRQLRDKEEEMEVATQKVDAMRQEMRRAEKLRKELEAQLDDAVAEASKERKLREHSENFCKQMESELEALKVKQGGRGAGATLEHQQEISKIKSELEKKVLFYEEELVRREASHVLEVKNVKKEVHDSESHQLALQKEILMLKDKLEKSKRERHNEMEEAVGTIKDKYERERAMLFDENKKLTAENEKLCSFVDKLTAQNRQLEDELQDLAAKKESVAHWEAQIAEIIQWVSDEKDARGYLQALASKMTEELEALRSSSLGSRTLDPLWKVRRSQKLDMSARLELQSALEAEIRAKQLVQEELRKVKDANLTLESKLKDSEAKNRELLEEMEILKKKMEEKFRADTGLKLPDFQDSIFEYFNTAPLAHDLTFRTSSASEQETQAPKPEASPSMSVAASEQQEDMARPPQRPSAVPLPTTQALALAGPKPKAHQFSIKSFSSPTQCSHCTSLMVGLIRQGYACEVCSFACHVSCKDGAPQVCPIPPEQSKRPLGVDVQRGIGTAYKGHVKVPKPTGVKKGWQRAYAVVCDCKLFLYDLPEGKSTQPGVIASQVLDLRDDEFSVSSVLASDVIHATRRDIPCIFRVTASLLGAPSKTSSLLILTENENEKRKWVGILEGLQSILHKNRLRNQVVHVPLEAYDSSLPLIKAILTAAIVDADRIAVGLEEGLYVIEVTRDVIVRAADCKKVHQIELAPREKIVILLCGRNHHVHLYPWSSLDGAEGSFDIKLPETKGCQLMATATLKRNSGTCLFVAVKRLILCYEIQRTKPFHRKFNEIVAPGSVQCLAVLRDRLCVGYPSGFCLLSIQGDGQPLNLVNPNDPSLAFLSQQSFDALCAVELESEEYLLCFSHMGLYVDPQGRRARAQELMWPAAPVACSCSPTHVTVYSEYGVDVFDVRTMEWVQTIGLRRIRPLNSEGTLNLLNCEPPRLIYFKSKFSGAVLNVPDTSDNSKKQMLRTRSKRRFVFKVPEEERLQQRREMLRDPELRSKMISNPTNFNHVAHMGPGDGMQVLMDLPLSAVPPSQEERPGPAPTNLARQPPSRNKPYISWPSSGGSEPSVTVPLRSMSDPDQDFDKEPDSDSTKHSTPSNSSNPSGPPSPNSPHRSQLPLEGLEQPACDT
T2 sequence (Q13554 whole entry): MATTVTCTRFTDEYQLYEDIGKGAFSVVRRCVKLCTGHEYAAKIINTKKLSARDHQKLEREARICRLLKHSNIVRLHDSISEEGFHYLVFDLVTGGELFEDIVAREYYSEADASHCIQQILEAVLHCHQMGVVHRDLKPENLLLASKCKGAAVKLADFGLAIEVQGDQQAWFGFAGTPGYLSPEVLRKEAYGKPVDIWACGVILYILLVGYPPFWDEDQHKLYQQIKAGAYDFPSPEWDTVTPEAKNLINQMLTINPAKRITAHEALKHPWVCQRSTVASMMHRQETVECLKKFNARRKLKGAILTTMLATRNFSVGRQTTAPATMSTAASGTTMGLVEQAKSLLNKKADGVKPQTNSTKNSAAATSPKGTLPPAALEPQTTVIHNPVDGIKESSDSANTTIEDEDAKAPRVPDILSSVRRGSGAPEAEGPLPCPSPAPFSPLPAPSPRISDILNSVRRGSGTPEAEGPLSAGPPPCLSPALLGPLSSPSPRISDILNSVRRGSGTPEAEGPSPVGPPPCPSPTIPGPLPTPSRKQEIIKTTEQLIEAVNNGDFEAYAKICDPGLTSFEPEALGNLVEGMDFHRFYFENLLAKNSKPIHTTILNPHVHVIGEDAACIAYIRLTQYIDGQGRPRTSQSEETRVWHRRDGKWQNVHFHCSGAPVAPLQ
T4 sequence (P49761 whole entry): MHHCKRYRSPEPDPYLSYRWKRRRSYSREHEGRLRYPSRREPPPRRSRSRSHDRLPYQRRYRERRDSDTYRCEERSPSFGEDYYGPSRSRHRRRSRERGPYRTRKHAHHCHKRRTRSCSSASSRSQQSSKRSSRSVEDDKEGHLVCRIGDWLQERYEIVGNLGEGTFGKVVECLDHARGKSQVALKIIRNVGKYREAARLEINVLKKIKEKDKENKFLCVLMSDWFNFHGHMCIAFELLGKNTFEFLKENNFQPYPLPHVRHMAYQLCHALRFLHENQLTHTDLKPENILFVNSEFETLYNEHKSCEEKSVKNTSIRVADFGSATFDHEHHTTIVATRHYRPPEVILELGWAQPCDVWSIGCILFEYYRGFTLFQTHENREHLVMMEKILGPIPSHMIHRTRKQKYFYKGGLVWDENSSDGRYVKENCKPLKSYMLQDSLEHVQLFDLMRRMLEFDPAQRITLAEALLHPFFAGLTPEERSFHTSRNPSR

Row | Sequence | % activity (CaMKIIγ (h)) | % activity (CaMKIIβ (h)) | % activity (EGFR (h)) | % activity (CLK3 (h)) | % activity (ULK3 (h)) | % activity (NEK2 (h)) | % activity (SAPK3 (h)) | % activity (Lyn (h)) | % activity (TAO3 (h)) | % activity (DAPK1 (h)) | % activity (MRCKβ (h))
1 | YARAAARQARAKALNRQLGVA (Mammalian) [MMI-0200] | 94% | 53% | 83% | 76% | 164% | 97% | 97% | 98% |  |  | 
2 | HRRIKAWLKKIKALARQLGVAA (Mammalian) [MMI-0500] | 3% | 3% | −1% | 76% | 177% | 0% | 24% | 31% | 12% | 0% | −10%
3 | FAKLAARLYRKALARQLGVAA [MMI-0300] | 5% | 2% | 21% | 61% | 167% | 78% | 84% | 69% | 77% | 46% | 83%
4 | KAFAKLAARLYRKALARQLGVAA [MMI-0400] | 3% | 11% | 16% | 84% | 147% | 61% | 79% | 3% | 67% | 36% | 71%

Source: patent publication US10500249B2, “Compositions and methods for preventing or treating diseases, conditions, or processes characterized by aberrant fibroblast proliferation and extracellular matrix deposition” (MOERAE MATRIX, INC., priority 2014, dated 2019)
